Test results: patent EP4768503A1 (Keymed Biosciences (Chengdu) Co., Ltd., dated 2026)
Changes are numbered by the printed parent chain. Where no end group is shown, it is not given here. [ ]: non-standard residue; d: D form. pGlu = O=C1CC[C@@H](C(=O)O)N1

How the values were obtained:
pyroE Aβ3-42 peptide = biological target: T1, pyroE Aβ3-42 peptide (human, pyroglutamate derived from glutamic acid at the third amino acid position of Aβ (N-terminus of the peptide)); experiment: graded binding, chimeric antibody (assay not named; ELISA in Example 1)
T1 construct: Synthetic peptide; It lacks the first two N-terminal residues of Aβ; also called pyroglutamate-modified β-amyloid

Aβ1-42 protofibril = biological target: T2, Aβ1-42 protofibril (human); experiment: SPR (Biacore T200), protofibril on CM5 chip, antibody as analyte
T2 construct: also called amyloid protofibril

[1] = biological target: T3, pyroE Aβ3-16-biotin polypeptide (human, also: biotin, position not given here); experiment: SPR (Biacore T200), biotinylated peptide on SA chip, antibody as analyte; antigen channel not given
T3 peptide: [pGlu]FRHDSGYEVHHQK

T2 sequence (peptide, as listed by the source): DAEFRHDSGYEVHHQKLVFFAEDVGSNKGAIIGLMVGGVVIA
T1 sequence (peptide, as listed by the source): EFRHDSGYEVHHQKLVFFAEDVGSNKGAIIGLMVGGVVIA

B1: 178D4 (antibody, V domains shown)
VH: QVQLQQSGAELVKPGASVKLSCKASGYTFTSYDLNWVRQRPEQGLEWIGWTFPGDGRTKYNEKFKGKATLTTDKSSSTAYMHLSRLTSEDSAVYFCVRWDYYGRSTGYFDVWGAGTTVTVSS
VL: QIVLTQSPAIMSASLGERVTMTCTASSSVSSSYLHWYQQRPGSSPKLWIYGTSNLASGVPARFSGSGSGTSYSLTISSMEAEDAATYYCHQYHRSPLTFGAGTKLELK
notes: Chimeric antibody; the constant region of the chimeric form is not specified
B1: binds (pyroE Aβ3-42 peptide).

B2: 7C8 H2K2 hIgG1 (antibody, V domains shown)
VH: QVTLKESGPALVKPTQTLTLTCTFSGFSLSTSGMGVSWIRQPPGKALEWLAHIYWDDDKRYNPSLKSRLTITKDTSKNQVVLTMTNMDPVDTATYYCARYGKGFAYWGQGTLVTVSS
VL: DIVMTQSPLSLPVTPGEPASISCRSSQSIVHSNGNTYLDWYLQKPGQSPQLLIYKVSNRFSGVPDRFSGSGSGTDFTLKISRVEAEDVGVYYCFQGSHVPLTFGQGTKLEIK
notes: also called h7C8 H2 + h7C8 K2
B2 gave a Kd (Aβ1-42 protofibril) of 2.76 nM, a koff (Aβ1-42 protofibril) of 0.00293 s⁻¹ and a kon (Aβ1-42 protofibril) of 1.06e+06 M⁻¹ s⁻¹.

B3: 7C8 H2K1 hIgG1 (antibody, V domains shown)
VH: B2 VH
VL: B2 VL with I2V, D39E, Q50K
notes: also called h7C8 H2 + h7C8 K1
B3 gave a Kd (Aβ1-42 protofibril) of 2.74 nM, a koff (Aβ1-42 protofibril) of 0.0028 s⁻¹ and a kon (Aβ1-42 protofibril) of 1.02e+06 M⁻¹ s⁻¹.

B4: 7C8 H6K2 hIgG1 (antibody, V domains shown)
VH: QVQLQESGPGLVKPSETLSLTCTFSGFSISTSGMGVSWIRQPPGKGLEWIGHIYWDDDKRYNPSLKSRVTISKDTSKNQVSLKLSSVTAADTAVYYCARYGKGFAYWGQGTLVTVSS
VL: B2 VL
notes: also called h7C8 H6K2 hIgG1; h7C8 H6K2
With B4 the Kd (Aβ1-42 protofibril) was 2.8 nM, the koff (Aβ1-42 protofibril) was 0.0041 s⁻¹ and the kon (Aβ1-42 protofibril) was 1.46e+06 M⁻¹ s⁻¹.

B5: 7C8 H4K2 hIgG1 (antibody, V domains shown)
VH: B4 VH with I29L, I50L, G51A, K77R
VL: B2 VL
notes: also called h7C8 H4 + h7C8 K2
B5 showed a Kd (Aβ1-42 protofibril) of 3.08 nM, a koff (Aβ1-42 protofibril) of 0.0037 s⁻¹ and a kon (Aβ1-42 protofibril) of 1.2e+06 M⁻¹ s⁻¹.

B6: 7C8 H5K2 hIgG1 (antibody, V domains shown)
VH: B4 VH with I29L, G51A
VL: B2 VL
notes: also called h7C8 H5 + h7C8 K2
B6 gave a Kd (Aβ1-42 protofibril) of 2.95 nM, a koff (Aβ1-42 protofibril) of 0.00395 s⁻¹ and a kon (Aβ1-42 protofibril) of 1.34e+06 M⁻¹ s⁻¹.

B7: 7C8 H6K1 hIgG1 (antibody, V domains shown)
VH: B4 VH
VL: B2 VL with I2V, D39E, Q50K
notes: also called h7C8 H6 + h7C8 K1
Work on B7 yielded a Kd (Aβ1-42 protofibril) of 2.63 nM, a koff (Aβ1-42 protofibril) of 0.00472 s⁻¹ and a kon (Aβ1-42 protofibril) of 1.79e+06 M⁻¹ s⁻¹.

B8: 7C8 H7K1 hIgG1 (antibody, V domains shown)
VH: B4 VH with F24V
VL: B2 VL with I2V, D39E, Q50K
notes: also called h7C8 H7 + h7C8 K1
B8 gave a Kd (Aβ1-42 protofibril) of 1.93 nM, a koff (Aβ1-42 protofibril) of 0.00466 s⁻¹ and a kon (Aβ1-42 protofibril) of 2.42e+06 M⁻¹ s⁻¹.

B9: 7C8 H7K2 hIgG1 (antibody, V domains shown)
VH: B4 VH with F24V
VL: B2 VL
notes: also called h7C8 H7 + h7C8 K2
In the case of B9, the Kd (Aβ1-42 protofibril) is reported as 2.33 nM, the koff (Aβ1-42 protofibril) is reported as 0.00415 s⁻¹ and the kon (Aβ1-42 protofibril) is reported as 1.78e+06 M⁻¹ s⁻¹.

B10: 200O1 H1K1 (antibody, V domains shown)
VH: QVTLKESGPVLVKPTETLTLTCTVSGFSLSRYIVHWYRQPPGKALEWLAMIWGGGRIDYNSALKSRLTISKDNSKSQVVLTMTNMDPVDTATYYCARNFGENAEAYWGQGTLVTVSS
VL: DIQMTQSPSSLSASVGDRVTITCRASQDINIYLNWYQQKPGKVVKLLIYYTSRLHSGVPSRFSGSGSGTDFTLTISSLQPEDVATYFCQQGHTLPYTFGQGTKLEIK
notes: also called h200O1 H1K1 hIgG1; h200O1 H1K1
B10 showed a Kd [1] of 0.0011 pM and a kon [1] of 682000 M⁻¹ s⁻¹.

B11: 200O1 H2K1 (antibody, V domains shown)
VH: B10 VH with N73T
VL: B10 VL
notes: also called h200O1 H2 + h200O1 K1
For B11, the Kd [1] was 0.625 pM, the koff [1] was 2.38e-07 s⁻¹ and the kon [1] was 381000 M⁻¹ s⁻¹.

B12: 200O1 H5K1 (antibody, V domains shown)
VH: QVQLQESGPGLVKPSETLSLTCTVSGFSLSRYIVHWYRQPPGKGLEWIGMIWGGGRIDYNSALKSRVTISKDNSKSQVSLKLSSVTAADTAVYYCARNFGENAEAYWGQGTLVTVSS
VL: B10 VL
notes: also called h200O1 H5 + h200O1 K1
B12 gave a Kd [1] of 0.0736 pM, a koff [1] of 5.7e-08 s⁻¹ and a kon [1] of 776000 M⁻¹ s⁻¹.

B13: 200O1 H6K1 (antibody, V domains shown)
VH: B12 VH with N73T, S76N
VL: B10 VL
notes: also called h200O1 H6 + h200O1 K1
In the case of B13, the Kd [1] is reported as 0.61 pM, the koff [1] is reported as 4.55e-07 s⁻¹ and the kon [1] is reported as 747000 M⁻¹ s⁻¹.

B14: 175P19 (antibody, V domains shown)
VH: EVMLVESGRDLVKPGGSLRLSCAASGFTFSTYAMSWIRQTPEKRLEWVATITSAGTYTYYPDSVKGRFTISRDNAKNTLYLQMRSLRSEDTAMYYCVRHELITTVVSTDYFSMDYWGQGTSVTVSS
VL: DIVLTQSPASLAVSLGQRATISCRASESVEYYGTSLMQWYQQKPGQPPKLLIYAASNVESGVPARFSGSGSGTDFSLNIHPVEEDDVAMYFCQQSRKVPLTFGAGTKLELK
notes: as for B1
B14: binds (pyroE Aβ3-42 peptide).

B15: 185O18 (antibody, V domains shown)
VH: B14 VH with R19K, S53N, A54Y
VL: B14 VL with Y31D
notes: Chimeric antibody; also called 185018
B15: binds (pyroE Aβ3-42 peptide).

B16: 151N5 H1K1 (antibody, V domains shown)
VH: EVQLVESGGGLVKPGGSLRLSCAASGFTFSDFYMYWVRQAPGKGLEWVATISDGGRYTYYPDRLKGRFTISRDIAKNSLYLQMNSLRAEDTAVYYCARGRSTMITTTRNYFALDYWGQGTLVTVSS
VL: DIQMTQSPSSLSASVGDRVTITCKASEDIYNRLAWYQQKPGKAPKLLISGATSLETGVPSRFSGSGSGKDYTLTISSLQPEDIATYYCQQYWRTPLTFGQGTKLEIK
notes: also called h151N5 H1 + h151N5 K1
B16 was tested, and the Kd [1] was 321 pM, the koff [1] was 0.0002 s⁻¹ and the kon [1] was 622000 M⁻¹ s⁻¹.

B17: 151N5 H1K2 (antibody, V domains shown)
VH: B16 VH
VL: B16 VL with I83V
notes: also called h151N5 H1 + h151N5 K2
B17 showed a Kd [1] of 319 pM, a koff [1] of 0.000207 s⁻¹ and a kon [1] of 648000 M⁻¹ s⁻¹.

B18: 193D22 (antibody, V domains shown)
VH: EVKLVESGGGLVKPGGSLKLSCAASGFAFSSYDMSWVRQTPEKRLEWVATISNGGSYTYYPDSVKGRFSISRDNARNTLYLQMSSLRSEDTALYYCARHPLYYGNYGWWYFDVWGAGTTVTVSS
VL: DVVMTQTPLSLPVSLGDQASISCRSSQSLVYSNGNTYLYWYLQKPGQSPKLLIYKVSNRFSGVPDRFSGSGSGTDFTLKISRVEAEDLGVYFCSQSTHVPLTFGAGTKLELK
notes: as for B1
B18: binds (pyroE Aβ3-42 peptide).

B19: 193M7 (antibody, V domains shown)
VH: B18 VH with N53S, G54R, S56T, S69T, D73N, W108Y
VL: B18 VL with Y31H, N33D, T36I
notes: as for B1
B19: binds (pyroE Aβ3-42 peptide).

B20: 192E15 (antibody, V domains shown)
VH: EVKLVESGGGLVQPGGSRKLSCAASGFTFSDYGMAWVRQAPGKGPEWVAFISNLAYSIYYADTVTGRFTISRQNAKNTLYLEMSSLRSEDTAMYYCARDRGYDGHSPYYAMDYWGQGTSVTVSS
VL: QAVVTQESALTTSPGETVTLTCRSSTGAVTTSNYANWVQEKPDHLFTGLIGGTSNRPPGVPARFSGSLIGDKAALTITGAQTEDEAIYFCALWYSHHWVFGGGTKLTVL
notes: as for B1
B20: binds (pyroE Aβ3-42 peptide).

B21: 171P1 (antibody, V domains shown)
VH: QVQLEQPGAVSVRPGASVKLSCKASGYTFTSYWINWVKQRPGQGLEWIGNIYPSDSYTHYNQKFKDKATLTVDKSSTTAYMQISSPTSEDSAVYYCTREGTVVYWGQGTLLTVSA
VL: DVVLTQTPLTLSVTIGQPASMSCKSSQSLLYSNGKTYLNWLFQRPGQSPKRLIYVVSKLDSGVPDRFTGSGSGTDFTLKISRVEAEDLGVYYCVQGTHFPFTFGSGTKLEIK
notes: as for B1
B21: binds (pyroE Aβ3-42 peptide).

B22: 174J17 (antibody, V domains shown)
VH: EVQLVESGGGLVKPGGSLKLSCAASGFTLSDYYMYWVRQTPEKRLEWVATISDGGRYTYYPDSVKGRFTISRDIAKNNLYIQMSSLRSEDTAMYYCARGRSTMITTTRNYLALDYWGQGTSVTVSS
VL: DIQMTQSSSSFSVSVGDRVTVTCKASEDIYNRLAWYQQRPGNAPRLLISGATSLETGVPSRFSGSGSGKDYILSITSLQTEDVGTYYCQQYWRTPLTFGEGTKLELK
notes: as for B1
B22: binds (pyroE Aβ3-42 peptide).

B23: 6B5 H1K2 hIgG1 (antibody, V domains shown)
VH: QVQLVQSGAEVKKPGASVKVSCKASGYTFTTYWMHWVRQAPGQGLEWIGEIDPSDSYTNYNQKFKGRATLTVDKSSSTAYMELSSLRSEDTAVYYCARSFHGNFFVYWGQGTLVTVSS
VL: EIVLTQSPATLSLSPGERATLSCRASSSVSYMHWFQQKPGQAPRLLIYSTSNLATGIPARFSGSGSGTDYTLTISRLEPEDFAVYYCQQRSSYPLTFGQGTKLEIK
notes: also called h6B5 H1 + h6B5 K2
Work on B23 yielded a Kd (Aβ1-42 protofibril) of 2.11 nM, a koff (Aβ1-42 protofibril) of 0.00361 s⁻¹ and a kon (Aβ1-42 protofibril) of 1.71e+06 M⁻¹ s⁻¹.

B24: 6B5 H1K1 hIgG1 (antibody, V domains shown)
VH: B23 VH
VL: B23 VL with L46W, T55S
notes: also called h6B5 H1 + h6B5 K1
Work on B24 yielded a Kd (Aβ1-42 protofibril) of 1.7 nM, a koff (Aβ1-42 protofibril) of 0.00255 s⁻¹ and a kon (Aβ1-42 protofibril) of 1.49e+06 M⁻¹ s⁻¹.

B25: 6B5 H1K3 hIgG1 (antibody, V domains shown)
VH: B23 VH
VL: B23 VL with N52S, L53R
notes: also called h6B5 H1 + h6B5 K3
B25 gave a Kd (Aβ1-42 protofibril) of 1.42 nM, a koff (Aβ1-42 protofibril) of 0.00404 s⁻¹ and a kon (Aβ1-42 protofibril) of 2.85e+06 M⁻¹ s⁻¹.

B26: 6B5 H1K5 hIgG1 (antibody, V domains shown)
VH: B23 VH
VL: DIQMTQSPSSLSASVGDRVTITCRASSSVSYMHWFQQKPGKAPKLLIYSTSNLASGVPSRFSGSGSGTDYTLTISSLQPEDFATYYCQQRSSYPLTFGQGTKLEIK
notes: also called h6B5 H1 + h6B5 K5
Work on B26 yielded a Kd (Aβ1-42 protofibril) of 1.87 nM, a koff (Aβ1-42 protofibril) of 0.00354 s⁻¹ and a kon (Aβ1-42 protofibril) of 1.9e+06 M⁻¹ s⁻¹.

B27: 6B5 H1K4 hIgG1 (antibody, V domains shown)
VH: B23 VH
VL: B26 VL with M4L, L46W
notes: also called h6B5 H1 + h6B5 K4
With B27 the Kd (Aβ1-42 protofibril) was 1.6 nM, the koff (Aβ1-42 protofibril) was 0.00229 s⁻¹ and the kon (Aβ1-42 protofibril) was 1.43e+06 M⁻¹ s⁻¹.

B28: 6B5 H1K6 hIgG1 (antibody, V domains shown)
VH: B23 VH
VL: B26 VL with N52S, A54Q
notes: also called h6B5 H1 + h6B5 K6
Binder B28 has a Kd (Aβ1-42 protofibril) of 1.64 nM, a koff (Aβ1-42 protofibril) of 0.00401 s⁻¹ and a kon (Aβ1-42 protofibril) of 2.44e+06 M⁻¹ s⁻¹.
